This note sets out measurements from the nanobody polyreactivity screen of Harvey et al. (2022).

This series is described as follows: yeast display, Sf9 membrane polyspecificity reagent, FACS + sequencing; frameworks hold sequencing errors. In a few lines:
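A nanobody's polyreactivity label depends on the gate it was sorted from. Yeast display cells were stained with 10% biotinylated, detergent-solubilized Sf9 membrane reagent for 1 hour at 4 °C, enriched on streptavidin microbeads and sorted by FACS. The low and high (top ~1%) gates were set on anti-HA fluorescence for expression and streptavidin fluorescence for reagent binding.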
Consider “QGQLVESGGGLVQAGGSLRLSCAASGSIFGINAMGWYRQAPGKERELVAAISGSTSRTYYADSVKGRFTISRDNAKKTVYLQMNSLKPEDTAVYYCAVVGLRSVTRRSDYWGQGTQVTVSS”, for which the “polyreactivity (PSR sort gate)” value is recorded as “high polyreactivity”.

For the sequence “QVQLVESGGGLVQAGGSLRLSCDASGIIFNTYAMGWYRQAPGKERELVAAISSSGGRTYYADSVKGRFTISRDYAKNTVYLQMNSLKPEDTAVYFCAADYRGGIRYYRGAAYNYWGQGTQVTVSS”, the “polyreactivity (PSR sort gate)” value is recorded as “high polyreactivity”.

“QVQLLESGGGLVQAGGSLRLSCAASGRIFLRYVMGWYRQAPGKERELVAAIRSNGGSTYADSVKGRFTSSRDNAKNTVYLHMNSLKPEDTAVYYCAARYVITKGSFVVGYGYWGQGTQVTVSS”: the “polyreactivity (PSR sort gate)” value is given as “high polyreactivity”.

Turning to “QVQLVESGVGLVQAGGSLRLSCAASGRIFSRYTMGWYRQAPGKERELVAAIRYSGGLTYYADSVKGRFTISRDNAKNTVYLQMNSLKPEDTAVYYCATQVYLGYDKLYGYWGQGTQVTVSS”, the “polyreactivity (PSR sort gate)” value is reported as “high polyreactivity”.

For “QVQLVESGVGLDQAGGSLRLSCAASGSTFASYAMGWYRQAPGKERELVAAITNGGSTNYADSVKGRFTISRDNAKNTVYLLMNSLKPEDTAVYYCAAYDGFPRRYDYWGQGTQVTVSS”, the “polyreactivity (PSR sort gate)” value was “low polyreactivity”.

Turning to “QVQLVESGGGLVQAGGSLRLSCAASGIIFYRYAMGWYRQAPGKERELVSAITWSGVSTSYADSVKGRFTISRDNAKNTVYLQMNSLKPEDTAVYYCAATNYGTFWGGQSERYDYWGQGTQVTVSS”, the “polyreactivity (PSR sort gate)” value is “low polyreactivity”.

As for “QVQLVESGGGIVQAGGSLRLSCAASGLIFSRNAMGWYRQAPGQERELVAAISTGGSTYYADSVKGRFTISRDNAKNTGYLQMNSLKPEDTAVYYCAAAPGYIYEYWGQGTQVTVSS”, the “polyreactivity (PSR sort gate)” value is reported as “low polyreactivity”.

Turning to “QVQLVESGGGLVQAGGSLRLSCAASGRIFRYNAMGWYRQAPGKERELVAAISWSGGSTYADSVKGRFTISRDNAKNTVYLQMNSLKPEDTAVYYCAADSSDLYVWGYDHWGQGTQVTVSS”, the “polyreactivity (PSR sort gate)” value is “low polyreactivity”.

As to “QVQLVESGGGLVQAGGSLRLSCAASGSIFNWYAMGWYRQAPGKERELVAAISSSGSTNYADSVKGRFTISRDNAKNTVYLQMNSLKPEDTAVYYCNADEYYLNNYNYGYWGQGTQVTVSS”, the “polyreactivity (PSR sort gate)” value was “low polyreactivity”.

As to “QVQLVESGGGLVQAGGSLSLSCAASGFTLRFYTMGWYRQAPGKERELVADITWSGASTYYADSVKGRFTISRDNAKNTVYLQMKSLKPEDTAVYYCNAEDRYWSYSVGAPYNYWGQGTQVTVSS”, the “polyreactivity (PSR sort gate)” value is on record as “low polyreactivity”.

As for “QVQLVESGGGLDQAGGSLRLSCAPSGSIFGSYAMGWYRQAPGKERELVAAIRRSSASTYYADSVKGRFTISRDNAKNTVYLQMNSLKPEDTAVYYCATQSYSDYGYRYRYAAYDYWGQGTQVTVSS”, the “polyreactivity (PSR sort gate)” value is “high polyreactivity”.

As for “QVQLVESGGGLVQAGGSLRLSCAASGYSFRLYAMGWYRQAPAKEWELVAAISKSGGSTYYADSVKGRFTISRDNANNTVYLQMNRLKPEETADYYCAADGVARYQKGQYDYWGQGTQVTVSS”, the “polyreactivity (PSR sort gate)” value is given as “high polyreactivity”.

Turning to “QVQLVESGGGLVQAGGSLRLSCAASGSTFYSNAMGWYRQAPGKERELVAAINRGSSTYYADSVKGRFTISRDNAKNTVYLQMNSLKPDDTAVYYCAVDYFWYEMDYWGQGTQVTVSS”, the “polyreactivity (PSR sort gate)” value was “low polyreactivity”.

Consider “QVQLVDSGGGLVQAGGSLRLTCAASGSIFNHKAMGGYRQAHGKERELVAAIRFSTGTTYYADSVKGRFTISRDYAMNTVYVQMNSLKPEDTAVYYWNAQGYFTDYWLSSYFRDFDYWGQGTHVTVSS”, for which the “polyreactivity (PSR sort gate)” value is “low polyreactivity”.

On to “QVQLVESGGGLVQAGGSLRLSCAASGSISYPKAMGWYRQAPGKERELVAAINSGDRTNYADSVKGRFTISRDNAKNTVYLQMNSLKPEDTAVYYCARRRYFLWGGYGYWGQGTQVTVSS”, for which the “polyreactivity (PSR sort gate)” value is “low polyreactivity”.

As for “QVQLVESGGGLVQAGGSLRLSCAASGSTFGKYAMGWYRQAPGKEREFVAGISWSADSTYYADSVKGRFTISRDNAKNTVYLQMNSLKPEDTAFYYCATDGSSDEFRPEYDYWGQGTQVTVSS”, the “polyreactivity (PSR sort gate)” value is on record as “low polyreactivity”.

Take “QVQLVESGGGLVQAGGSLRISCAASGSTFGPYAMGWYRPAPGKERELVAAITKSGGRTYYADSVKGRFTISRDNAKNTVYLQMNSLKPEDTAVYYCAAYGSVGLEYWGQGTQVTVSS”: the “polyreactivity (PSR sort gate)” value is reported as “high polyreactivity”.

In the case of “QVQLVESGGGLVQAGGSLRLSCAASGYIFKSNVMGWYRQAPGKERELVAAISWSGGRTYYADSVKGRFTISRDNAKNTVYFQRNSLKPEDTAVYYCAAVGRQSNYYVDYDYWGQGTQVTVSS”, the “polyreactivity (PSR sort gate)” value is “high polyreactivity”.

As for “QVQLVDSGPGLVQAGGSLRLSCAASGGTFQPNARGCYRQAPGKERELVAAISGSGDSTYYADSVKGRFTISRDNAKNTVYLQMNSLKPEDTAVYYCNAYFWFSRYAWGDTSYDYWGQGTQVTVSS”, the “polyreactivity (PSR sort gate)” value was “low polyreactivity”.

As for “QVQLVESGGGLVQAGGSLRLSCAASGRIFPGNAMGWYRQAPGKERELVATITESDSSTYYADSVKGRFTISRDNAKNTVYLQMNSLKPDDTAVYYFAAGPSVYWRYDYWGQGTQVTVSS”, the “polyreactivity (PSR sort gate)” value is “low polyreactivity”.

For “QVQHVESGGGLVQAGGSLRLSCAASGRIFDLYAMGWYRQAPGKERELVAAITSGSTYYADSVKGRFTISRDNAKNTVYLQMNSLKPEDTAVYYCAADLSYWRGGHSRNYWGQGTQVTVSS”, the “polyreactivity (PSR sort gate)” value is on record as “low polyreactivity”.

“QVQLVESGGGLVQAGGSLRLSCAASGSTFILYAMGWYRQAPGKERELVAAISKRGGSTYYADSVKGRFTISRDNATHTVYFQLKSLKPEDTAVYYLNKKNPQDLTENGYWGQGTEVTVSS”: the “polyreactivity (PSR sort gate)” value is “high polyreactivity”.

With “QVPLVETGGGLVQAGGSLRLSCAASGRTFNVYAMGWYRQAPGKERELVASITWDDGTTYNADSVKGRFTNSRDNAKNTVYLQMNSLKPEVTAVYYCAADGIYRGAWSTVYESPGYDYWGQGTQVTVSS”, the “polyreactivity (PSR sort gate)” value is reported as “low polyreactivity”.

In the case of “QVQLVESGGGLVQAGGSLRLSCAASGRIFPWNPMGWYRQAPGKERELVAGINNGDRTYYADSVKGRFTISRDNAKNTVYLQMNSLKPEDTAVYYCAVDTWYFLFQYGYYQEGDYWGQGTQVTVSS”, the “polyreactivity (PSR sort gate)” value is reported as “low polyreactivity”.

In the case of “QVQLVESGGGLVQAGGSLRLSCAASGSIFNANAMGWYRQAPAKERELVAAITPSDGDTYYADSVKGRFTISRDNAKNTVYLQMNSLKPEDTAVYYCAAEDDPGEYEYWGQGTQVTVSS”, the “polyreactivity (PSR sort gate)” value is reported as “low polyreactivity”.

As to “QVQLVESGGGLVQAGGSLRLSCAASGRTFKSYAMGWYRQAPGKERELVAAITWSGGSTYYADSVKGRFTISRDNAKNTVYLQMNSLKPEDTAVYYCAADSVYYYWYGYDYWGQGTQVTVSS”, the “polyreactivity (PSR sort gate)” value is listed as “low polyreactivity”.

For “QVQLVQSGGGLVQAGGSLRLSCAASGNIISIYVMGWYRQAPGKERELVAAITSGGSTNYADSVKGRFTISRDNAKNTVYFQMNSLKPEDTAVYYCAAERNADDESYYWGQGSQVTVSS”, the “polyreactivity (PSR sort gate)” value was “low polyreactivity”.

As to “QVQLEESGGGLVQAGGSLRLSCAASGIIFAANAMGWYRQAPGKERELVAAISKNGGITYYADSVKGRFTISRDNAKNTVYLQMNSLKPEDTAVYYCAARWRQTRRYYYWGQGTQVTVSS”, the “polyreactivity (PSR sort gate)” value was “high polyreactivity”.

With “QVHLVESGGGFVQAGGSLRVSCAASRRIYNLNAMGWYRQAPGKERELVAAISKSGTRTYYADSVKGRFTISRDNAKNTVYLPMNSLKPEDTAVYSCAARRSSVTQSTTYPAVRQRYGYWGQGTQVTVSS”, the “polyreactivity (PSR sort gate)” value is on record as “high polyreactivity”.

As to “QVQLVESGGGLVQAGGSLRLSCAASGSTFSTYAMGWYRQAPGKERELVARITRGGSTNYADSVKGRFTISRDNAKNTVYLQMNSLKPEDTAVYYCAAGIRSGRKYDYWGQGTQVTVSS”, the “polyreactivity (PSR sort gate)” value is on record as “low polyreactivity”.
